Experiment [1] addresses MyoD, bacterially expressed (UniProt P10085).
Experiment [2] deals with T1, Myoblast Determination protein 1 (MYOD1/MyoD), endogenous in C2C12 (mouse (endogenous in C2C12), UniProt P10085 1-318).
T1 sequence (looked up): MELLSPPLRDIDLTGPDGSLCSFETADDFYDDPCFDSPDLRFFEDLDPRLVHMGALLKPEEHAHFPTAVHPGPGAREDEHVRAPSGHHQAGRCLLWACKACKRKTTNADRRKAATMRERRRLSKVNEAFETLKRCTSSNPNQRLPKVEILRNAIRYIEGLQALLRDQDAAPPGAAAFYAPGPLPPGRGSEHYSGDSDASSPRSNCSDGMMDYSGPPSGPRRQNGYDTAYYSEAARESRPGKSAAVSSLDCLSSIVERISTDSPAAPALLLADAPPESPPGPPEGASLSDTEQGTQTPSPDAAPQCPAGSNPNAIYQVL
Nature of the experiment: cell-based or functional assay.

Experimental findings from PMC7861563, “FOXP1 Interacts with MyoD to Repress its Transcription and Myoblast Conversion” (Journal of cellular signaling, 2021) are described below.

As for “GST-FOXP Forkhead domain (GST-Fkh) (domain or fragment)”, in experiment [1], the EMSA titration: amount of GST-Fkh for full inhibition of DNA binding of MyoD homodimers (200ng/reaction) was determined as 100 ng and the EMSA titration: amount of GST-Fkh for full inhibition of DNA binding of MyoD-E47N (MyoD 200ng, E47N 50ng/reaction) is 400 ng.

B1: Forkhead Box P1 (FOXP1), endogenous in C2C12 (natural protein, mouse (endogenous in C2C12), UniProt P58462 1-705, looked up)
chain: MMQESGSETKSNGSAIQNGSSGGNHLLECGALRDTRSNGEAPAVDLGAADLAHVQQQQQQALQVARQLLLQQQQQQQQQQQQQQQQQQQQQQQQQQQQQQQQQQQQQVSGLKSPKRNDKQPALQVPVSVAMMTPQVITPQQMQQILQQQVLSPQQLQVLLQQQQALMLQQQLQEFYKKQQEQLQLQLLQQQHAGKQPKEQQVATQQLAFQQQLLQMQQLQQQHLLSLQRQGLLTIQPGQPALPLQPLAQGMIPTELQQLWKEVTSAHTAEETTSSNHSSLDLTSTCVSSSAPSKSSLIMNPHASTNGQLSVHTPKRESLSHEEHPHSHPLYGHGVCKWPGCEAVCDDFPAFLKHLNSEHALDDRSTAQCRVQMQVVQQLELQLAKDKERLQAMMTHLHVKSTEPKAAPQPLNLVSSVTLSKSASEASPQSLPHTPTTPTAPLTPVTQGPSVITTTSMHTVGPIRRRYSDKYNVPISSADIAQNQEFYKNAEVRPPFTYASLIRQAILESPEKQLTLNEIYNWFTRMFAYFRRNAATWKNAVRHNLSLHKCFVRVENVKGAVWTVDEVEFQKRRPQKISGNPSLIKNMQSSHAYCTPLNAALQASMAENSIPLYTTASMGNPTLGSLASAIREELNGAMEHTNSNESDSSPGRSPMQAVHPIHVKEEPLDPEEAEGPLSLVTTANHSPDFDHDRDYEDEPVNEDME
Take B1: in experiment [2], the “MCK enhancer E box firefly luciferase reporter in 10T1/2 cells after 5-azacytidine, FOXP1 expression plasmid in varying amounts (highest input ~3-fold molar excess over MyoD)” value is ~20 fold and the “luciferase reporter driven by 2 E-box consensus MyoD binding sites (2R-luc) in differentiating C2C12, normalized to β-galactosidase” value was ~12 fold.
